According to US20190345485A1:

Target: MCR2(OVA)
Assay: cell-based or functional assay

Substance: OT-II TCR
- NFAT-activation triggered by a T-cell population holding 1% peptide-specific CD4+ T-cells (% of the maximal NFAT-activation): 50
